What was measured:
[1] = molecular target: Substrate-binding domain (SBD) of GRP78 (RED-tris-NTA dye held on the His-tag); test: MST
[2] = molecular target: T1, Recombinant hamster GRP78 protein (hamster, UniProt G3I8R9 19-654, RED-tris-NTA dye held on the His-tag); test: MST; 200 uM CaCl2
[3] = molecular target: T1, Recombinant hamster GRP78 protein; test: MST; 1 uM CaCl2
[4] = molecular target: T1, Recombinant hamster GRP78 protein; test: MST; 100 uM CaCl2
[5] = molecular target: T1, Recombinant hamster GRP78 protein; test: MST

T1 sequence (G3I8R9 19-654): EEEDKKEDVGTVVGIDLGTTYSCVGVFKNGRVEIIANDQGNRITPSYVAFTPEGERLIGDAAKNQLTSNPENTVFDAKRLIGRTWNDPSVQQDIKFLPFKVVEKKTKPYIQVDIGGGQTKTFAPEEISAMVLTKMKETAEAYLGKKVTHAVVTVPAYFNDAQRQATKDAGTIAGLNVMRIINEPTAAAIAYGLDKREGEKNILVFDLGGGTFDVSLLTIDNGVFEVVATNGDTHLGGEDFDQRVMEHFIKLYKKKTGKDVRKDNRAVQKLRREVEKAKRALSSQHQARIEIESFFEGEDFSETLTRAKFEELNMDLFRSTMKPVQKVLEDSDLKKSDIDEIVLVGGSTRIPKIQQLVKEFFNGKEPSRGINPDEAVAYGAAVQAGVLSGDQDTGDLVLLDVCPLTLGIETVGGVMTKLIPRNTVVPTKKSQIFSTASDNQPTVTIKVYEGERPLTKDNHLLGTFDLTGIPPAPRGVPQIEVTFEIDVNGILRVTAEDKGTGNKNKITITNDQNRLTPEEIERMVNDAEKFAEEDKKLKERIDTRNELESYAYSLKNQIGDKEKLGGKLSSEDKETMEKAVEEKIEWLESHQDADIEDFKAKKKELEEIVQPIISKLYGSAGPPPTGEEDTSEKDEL
Chain of Substrate-binding domain (SBD) of GRP78 (RED-tris-NTA dye held on the His-tag) (chain, as listed by the source): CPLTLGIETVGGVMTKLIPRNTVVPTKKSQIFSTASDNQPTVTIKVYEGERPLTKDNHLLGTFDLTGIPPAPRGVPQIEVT

B1: Recombinant human MANF protein (natural protein)
chain: LRPGDCEVCISYLGRFYQDLKDRDVTFSPATIENELIKFCREARGKENRLCYYIGATDDAATKIINEVSKPLAHHIPVEKICEKLKKKDSQICELKYDKQIDLSTVDLKKLRVKELKKILDDWGETCKGCAEKSDYIRKINELMPKYAPKAASARTDL
Kd [1]: 1400 nM | Kd [2]: 430 nM | Kd [3]: 570 nM | Kd [4]: 500 nM | Kd [5]: 216 nM

B2: Recombinant MANF E153A mutant protein (natural protein)
chain: LRPGDCEVCISYLGRFYQDLKDRDVTFSPATIENELIKFCREARGKENRLCYYIGATDDAATKIINEVSKPLAHHIPVEKICEKLKKKDSQICELKYDKQIDLSTVDLKKLRVKELKKILDDWGETCKGCAAKSDYIRKINELMPKYAPKAASARTDL
Kd [5]: 269 nM

— publication PMC7949057 (2021)
